Results on two sequences are retold here after paper PMC3572039.

The target of the data set is T1, MBP-Δ116 (truncated XydR response regulator) del1-116 (Clostridium cellulolyticum H10 (ATCC 35319/DSM 5812)) (UniProt B8I0K9).
T1 sequence: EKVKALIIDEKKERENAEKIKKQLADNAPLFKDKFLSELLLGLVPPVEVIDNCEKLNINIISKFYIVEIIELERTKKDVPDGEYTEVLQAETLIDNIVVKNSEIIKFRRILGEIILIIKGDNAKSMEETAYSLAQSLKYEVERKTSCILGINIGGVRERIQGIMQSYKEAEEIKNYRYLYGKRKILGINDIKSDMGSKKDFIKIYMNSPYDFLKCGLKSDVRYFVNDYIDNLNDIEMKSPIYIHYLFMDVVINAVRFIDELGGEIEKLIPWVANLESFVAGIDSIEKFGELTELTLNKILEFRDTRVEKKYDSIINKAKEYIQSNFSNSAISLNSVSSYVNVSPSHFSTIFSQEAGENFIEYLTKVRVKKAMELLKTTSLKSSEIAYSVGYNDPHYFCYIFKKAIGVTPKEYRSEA
In words: EMSA. Conditions: 10 mM Tris pH 7.5, 150 mM KCl, 1 mM DTT, 30 ng/uL salmon sperm DNA, 0.1 ug/uL BSA, 0.05% NP-40, 2.5% glycerol, 20 C, 20 min; 20 fmol probe; 5% native PAGE.

For “CCTTCTTAATCAGTTTCTAATTGCCAAAGAATAAGAGTAAAATGATTAGTAAATCTATATTCATTATAGAATGTAAACTGTTTCCAGCTCAATATAAATCCTTTTGACTTTTGTATATTAATTTTGTAAAATATCATTTTCAGTGTATTGGAGCAACATAAAAAAAGCAGCTGTAGAAAATCCAGCTGCTTTATACTTGCTATTTGTACAATTTTAGAATTACTTGTTAATACCTTATTCCGCAGC (double strand) [R6 (upstream Ccel_1656)]”, the binding entry was “binds”. For the sequence “GTATATAAGGTATTGACTTTCTTTGGCAGATGTAAGAATAGGAGTAAAATGAAAAGAACGATTAGTACATATTAACTATGTTAAAAATATTATAGAATGTAAATGGTTTCCATTTCAATATAAATCTTTTTGGTATTGGTATAAATTTTTGAATTCATTTTATCATATTTTGAAAAATTAGTAAATTATTTATTTTATTTTACACTTTTGTATATATTTTTTTAAATTTGTTAAGATATATTTTGCTATGCTTCACTCCTATACTCCTTTGG (double strand) [R3 (upstream Ccel_1229)]”, the binding entry is given as “binds”.
